Test results from article PMC3654831 (Cell reports, 2012).
Several values for one entry are separate records, joined by “and”; a condition that tells them apart may be missing. Equal entries are not always repeated. Each block holds one binder with its values, some of them ahead of it.

B1: Sgt2 N-terminal homodimerization domain (Sgt2-N), wild type (domain or fragment, S. cerevisiae)
chain: SASKEEIAALIVNYFSSIVEKKEISEDGADSLNVAMDCISEAFGFEREAVSGILGKSEFKGQHLADILNSA

Legend:
[1] = target: T1, Get5 ubiquitin-like domain (Get5-UBL), wild type (S. cerevisiae, UniProt Q12285 74-151); test: NMR exchange spectroscopy
T1 sequence: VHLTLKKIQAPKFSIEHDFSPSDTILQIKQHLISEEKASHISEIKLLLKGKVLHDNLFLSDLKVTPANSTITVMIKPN

[2] = target: T2, polyhistidine-tagged Get5-UBL-C (S. cerevisiae); test: SPR
T2 sequence (Q12285 whole entry, looked up): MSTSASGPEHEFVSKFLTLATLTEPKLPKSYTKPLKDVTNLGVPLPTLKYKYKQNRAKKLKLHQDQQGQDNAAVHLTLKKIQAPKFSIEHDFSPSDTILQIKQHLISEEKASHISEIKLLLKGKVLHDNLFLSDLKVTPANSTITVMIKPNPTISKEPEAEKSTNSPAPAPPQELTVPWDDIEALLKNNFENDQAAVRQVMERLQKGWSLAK

[3] = target: T3, polyhistidine-tagged Get5-UBL, wild type (S. cerevisiae, UniProt Q12285 74-151); test: SPR
T3 sequence: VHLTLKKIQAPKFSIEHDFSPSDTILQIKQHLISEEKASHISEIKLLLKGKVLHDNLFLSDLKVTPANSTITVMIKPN

[4] = target: the molecule itself; test: solution NMR structure
[5] = target: T1, Get5 ubiquitin-like domain (Get5-UBL), …; test: NMR exchange spectroscopy; remark: listed apart in the source
[6] = target: T1, Get5 ubiquitin-like domain (Get5-UBL), …; test: ITC
[7] = target: B1; test: ITC

Binder: B1
koff [1]: 7.5 s⁻¹ and 5.7 s⁻¹
Kd [2]: 749 nM
kon [2]: 1.06e+07 M⁻¹ s⁻¹
Kd [3]: 3780 nM
stoichiometry N [4]: 2
kon [5]: ~2e+08 M⁻¹ s⁻¹

binding result [3]: binds
B2: Sgt2-N D28A (domain or fragment, S. cerevisiae)
chain: SASKEEIAALIVNYFSSIVEKKEISEAGADSLNVAMDCISEAFGFEREAVSGILGKSEFKGQHLADILNSA

fold lower affinity than wild type [6]: 100 fold
B3: Sgt2-N C39V (domain or fragment, S. cerevisiae)
chain: SASKEEIAALIVNYFSSIVEKKEISEDGADSLNVAMDVISEAFGFEREAVSGILGKSEFKGQHLADILNSA

fold lower affinity than wild type [6]: ~700 fold
B4: Sgt2-N C39S (domain or fragment, S. cerevisiae)
chain: SASKEEIAALIVNYFSSIVEKKEISEDGADSLNVAMDSISEAFGFEREAVSGILGKSEFKGQHLADILNSA

fold lower affinity than wild type [7]: 1000 fold
B5: Get5-UBL L120A (domain or fragment, S. cerevisiae)
chain: VHLTLKKIQAPKFSIEHDFSPSDTILQIKQHLISEEKASHISEIKLALKGKVLHDNLFLSDLKVTPANSTITVMIKPN

binding result [3]: binds
B6: Sgt2-N D31A (domain or fragment, S. cerevisiae)
chain: SASKEEIAALIVNYFSSIVEKKEISEDGAASLNVAMDCISEAFGFEREAVSGILGKSEFKGQHLADILNSA

fold lower affinity than wild type [6]: > 100 fold
B7: Sgt2-N V35A (domain or fragment, S. cerevisiae)
chain: SASKEEIAALIVNYFSSIVEKKEISEDGADSLNAAMDCISEAFGFEREAVSGILGKSEFKGQHLADILNSA
